This is an account of results in patent publication US20210388087A1 (Chugai, published 2021).

B1: CE115HA000 D73A one-arm antibody (antibody, human IgG1, kappa, L234A L235A, N297A, name in Kabat numbering)
heavy: QVQLVESGGGVVQPGRSLRLSCAASGFTFSNAWMHWVRQAPGKGLEWVAQIKAKSNNYATYYAESVKGRFTISRDASKNSLYLQMNSLKTEDTAVYYCRYVHYGAYYGVDAWGQGTTVTVSSASTKGPSVFPLAPSSKSTSGGTAALGCLVKDYFPEPVTVSWNSGALTSGVHTFPAVLQSSGLYSLSSVVTVPSSSLGTQTYICNVNHKPSNTKVDKKVEPKSCDKTHTCPPCPAPEAAGGPSVFLFPPKPKDTLMISRTPEVTCVVVDVSHEDPEVKFNWYVDGVEVHNAKTKPREEQYASTYRVVSVLTVLHQDWLNGKEYKCKVSNKALPAPIEKTISKAKGQPREPQVYTLPPSRCELTKNQVSLSCAVKGFYPSDIAVEWESNGQPENNYKTTPPVLDSDGSFFLVSKLTVDKSRWQQGNVFSCSVMHEALHNHYTQKSLSLSPDYKDDDDK
chain: EPKSSDKTHTCPPCPAPELLGGPSVFLFPPKPKDTLMISRTPEVTCVVVDVSHEDPEVKFNWYVDGVEVHNAKTKPREEQYNSTYRVVSVLTVLHQDWLNGKEYKCKVSNKALPAPIEKTISKAKGQPREPQVCTLPPSRDELTKNQVSLWCLVKGFYPSDIAVEWESNGQPENNYKTTPPVLDSDGSFFLYSKLTVDKSRWQQGNVFSCSVMHEALHNRYTQKSLSLSP
light: DIVMTQSPLSLPVTPGEPASISCRSSQSLVHSNRNTYLHWYQQKPGQAPRLLIYKVSNRFSGVPDRFSGSGSGTDFTLKISRVEAEDVGVYYCGQGTQVPYTFGQGTKLEIKRTVAAPSVFIFPPSDEQLKSGTASVVCLLNNFYPREAKVQWKVDNALQSGNSQESVTEQDSKDSTYSLSSTLTLSKADYEKHKVYACEVTHQGLSSPVTKSFNRGEC
B2: CE115HA000 D73K one-arm antibody (antibody, human IgG1, kappa, L234A L235A, N297A, name in Kabat numbering)
heavy: QVQLVESGGGVVQPGRSLRLSCAASGFTFSNAWMHWVRQAPGKGLEWVAQIKAKSNNYATYYAESVKGRFTISRDKSKNSLYLQMNSLKTEDTAVYYCRYVHYGAYYGVDAWGQGTTVTVSSASTKGPSVFPLAPSSKSTSGGTAALGCLVKDYFPEPVTVSWNSGALTSGVHTFPAVLQSSGLYSLSSVVTVPSSSLGTQTYICNVNHKPSNTKVDKKVEPKSCDKTHTCPPCPAPEAAGGPSVFLFPPKPKDTLMISRTPEVTCVVVDVSHEDPEVKFNWYVDGVEVHNAKTKPREEQYASTYRVVSVLTVLHQDWLNGKEYKCKVSNKALPAPIEKTISKAKGQPREPQVYTLPPSRCELTKNQVSLSCAVKGFYPSDIAVEWESNGQPENNYKTTPPVLDSDGSFFLVSKLTVDKSRWQQGNVFSCSVMHEALHNHYTQKSLSLSPDYKDDDDK
chain: EPKSSDKTHTCPPCPAPELLGGPSVFLFPPKPKDTLMISRTPEVTCVVVDVSHEDPEVKFNWYVDGVEVHNAKTKPREEQYNSTYRVVSVLTVLHQDWLNGKEYKCKVSNKALPAPIEKTISKAKGQPREPQVCTLPPSRDELTKNQVSLWCLVKGFYPSDIAVEWESNGQPENNYKTTPPVLDSDGSFFLYSKLTVDKSRWQQGNVFSCSVMHEALHNRYTQKSLSLSP
light: DIVMTQSPLSLPVTPGEPASISCRSSQSLVHSNRNTYLHWYQQKPGQAPRLLIYKVSNRFSGVPDRFSGSGSGTDFTLKISRVEAEDVGVYYCGQGTQVPYTFGQGTKLEIKRTVAAPSVFIFPPSDEQLKSGTASVVCLLNNFYPREAKVQWKVDNALQSGNSQESVTEQDSKDSTYSLSSTLTLSKADYEKHKVYACEVTHQGLSSPVTKSFNRGEC
B3: CE115HA000 D73G one-arm antibody (antibody, human IgG1, kappa, L234A L235A, N297A, name in Kabat numbering)
heavy: QVQLVESGGGVVQPGRSLRLSCAASGFTFSNAWMHWVRQAPGKGLEWVAQIKAKSNNYATYYAESVKGRFTISRDGSKNSLYLQMNSLKTEDTAVYYCRYVHYGAYYGVDAWGQGTTVTVSSASTKGPSVFPLAPSSKSTSGGTAALGCLVKDYFPEPVTVSWNSGALTSGVHTFPAVLQSSGLYSLSSVVTVPSSSLGTQTYICNVNHKPSNTKVDKKVEPKSCDKTHTCPPCPAPEAAGGPSVFLFPPKPKDTLMISRTPEVTCVVVDVSHEDPEVKFNWYVDGVEVHNAKTKPREEQYASTYRVVSVLTVLHQDWLNGKEYKCKVSNKALPAPIEKTISKAKGQPREPQVYTLPPSRCELTKNQVSLSCAVKGFYPSDIAVEWESNGQPENNYKTTPPVLDSDGSFFLVSKLTVDKSRWQQGNVFSCSVMHEALHNHYTQKSLSLSPDYKDDDDK
chain: EPKSSDKTHTCPPCPAPELLGGPSVFLFPPKPKDTLMISRTPEVTCVVVDVSHEDPEVKFNWYVDGVEVHNAKTKPREEQYNSTYRVVSVLTVLHQDWLNGKEYKCKVSNKALPAPIEKTISKAKGQPREPQVCTLPPSRDELTKNQVSLWCLVKGFYPSDIAVEWESNGQPENNYKTTPPVLDSDGSFFLYSKLTVDKSRWQQGNVFSCSVMHEALHNRYTQKSLSLSP
light: DIVMTQSPLSLPVTPGEPASISCRSSQSLVHSNRNTYLHWYQQKPGQAPRLLIYKVSNRFSGVPDRFSGSGSGTDFTLKISRVEAEDVGVYYCGQGTQVPYTFGQGTKLEIKRTVAAPSVFIFPPSDEQLKSGTASVVCLLNNFYPREAKVQWKVDNALQSGNSQESVTEQDSKDSTYSLSSTLTLSKADYEKHKVYACEVTHQGLSSPVTKSFNRGEC
B4: CE115HA000 D73E one-arm antibody (antibody, human IgG1, kappa, L234A L235A, N297A, name in Kabat numbering)
heavy: QVQLVESGGGVVQPGRSLRLSCAASGFTFSNAWMHWVRQAPGKGLEWVAQIKAKSNNYATYYAESVKGRFTISRDESKNSLYLQMNSLKTEDTAVYYCRYVHYGAYYGVDAWGQGTTVTVSSASTKGPSVFPLAPSSKSTSGGTAALGCLVKDYFPEPVTVSWNSGALTSGVHTFPAVLQSSGLYSLSSVVTVPSSSLGTQTYICNVNHKPSNTKVDKKVEPKSCDKTHTCPPCPAPEAAGGPSVFLFPPKPKDTLMISRTPEVTCVVVDVSHEDPEVKFNWYVDGVEVHNAKTKPREEQYASTYRVVSVLTVLHQDWLNGKEYKCKVSNKALPAPIEKTISKAKGQPREPQVYTLPPSRCELTKNQVSLSCAVKGFYPSDIAVEWESNGQPENNYKTTPPVLDSDGSFFLVSKLTVDKSRWQQGNVFSCSVMHEALHNHYTQKSLSLSPDYKDDDDK
chain: EPKSSDKTHTCPPCPAPELLGGPSVFLFPPKPKDTLMISRTPEVTCVVVDVSHEDPEVKFNWYVDGVEVHNAKTKPREEQYNSTYRVVSVLTVLHQDWLNGKEYKCKVSNKALPAPIEKTISKAKGQPREPQVCTLPPSRDELTKNQVSLWCLVKGFYPSDIAVEWESNGQPENNYKTTPPVLDSDGSFFLYSKLTVDKSRWQQGNVFSCSVMHEALHNRYTQKSLSLSP
light: DIVMTQSPLSLPVTPGEPASISCRSSQSLVHSNRNTYLHWYQQKPGQAPRLLIYKVSNRFSGVPDRFSGSGSGTDFTLKISRVEAEDVGVYYCGQGTQVPYTFGQGTKLEIKRTVAAPSVFIFPPSDEQLKSGTASVVCLLNNFYPREAKVQWKVDNALQSGNSQESVTEQDSKDSTYSLSSTLTLSKADYEKHKVYACEVTHQGLSSPVTKSFNRGEC
B5: CE115HA000 D73N one-arm antibody (antibody, human IgG1, kappa, L234A L235A, N297A, name in Kabat numbering)
heavy: QVQLVESGGGVVQPGRSLRLSCAASGFTFSNAWMHWVRQAPGKGLEWVAQIKAKSNNYATYYAESVKGRFTISRDNSKNSLYLQMNSLKTEDTAVYYCRYVHYGAYYGVDAWGQGTTVTVSSASTKGPSVFPLAPSSKSTSGGTAALGCLVKDYFPEPVTVSWNSGALTSGVHTFPAVLQSSGLYSLSSVVTVPSSSLGTQTYICNVNHKPSNTKVDKKVEPKSCDKTHTCPPCPAPEAAGGPSVFLFPPKPKDTLMISRTPEVTCVVVDVSHEDPEVKFNWYVDGVEVHNAKTKPREEQYASTYRVVSVLTVLHQDWLNGKEYKCKVSNKALPAPIEKTISKAKGQPREPQVYTLPPSRCELTKNQVSLSCAVKGFYPSDIAVEWESNGQPENNYKTTPPVLDSDGSFFLVSKLTVDKSRWQQGNVFSCSVMHEALHNHYTQKSLSLSPDYKDDDDK
chain: EPKSSDKTHTCPPCPAPELLGGPSVFLFPPKPKDTLMISRTPEVTCVVVDVSHEDPEVKFNWYVDGVEVHNAKTKPREEQYNSTYRVVSVLTVLHQDWLNGKEYKCKVSNKALPAPIEKTISKAKGQPREPQVCTLPPSRDELTKNQVSLWCLVKGFYPSDIAVEWESNGQPENNYKTTPPVLDSDGSFFLYSKLTVDKSRWQQGNVFSCSVMHEALHNRYTQKSLSLSP
light: DIVMTQSPLSLPVTPGEPASISCRSSQSLVHSNRNTYLHWYQQKPGQAPRLLIYKVSNRFSGVPDRFSGSGSGTDFTLKISRVEAEDVGVYYCGQGTQVPYTFGQGTKLEIKRTVAAPSVFIFPPSDEQLKSGTASVVCLLNNFYPREAKVQWKVDNALQSGNSQESVTEQDSKDSTYSLSSTLTLSKADYEKHKVYACEVTHQGLSSPVTKSFNRGEC
B6: CE115HA000 D73R one-arm antibody (antibody, human IgG1, kappa, L234A L235A, N297A, name in Kabat numbering)
heavy: QVQLVESGGGVVQPGRSLRLSCAASGFTFSNAWMHWVRQAPGKGLEWVAQIKAKSNNYATYYAESVKGRFTISRDRSKNSLYLQMNSLKTEDTAVYYCRYVHYGAYYGVDAWGQGTTVTVSSASTKGPSVFPLAPSSKSTSGGTAALGCLVKDYFPEPVTVSWNSGALTSGVHTFPAVLQSSGLYSLSSVVTVPSSSLGTQTYICNVNHKPSNTKVDKKVEPKSCDKTHTCPPCPAPEAAGGPSVFLFPPKPKDTLMISRTPEVTCVVVDVSHEDPEVKFNWYVDGVEVHNAKTKPREEQYASTYRVVSVLTVLHQDWLNGKEYKCKVSNKALPAPIEKTISKAKGQPREPQVYTLPPSRCELTKNQVSLSCAVKGFYPSDIAVEWESNGQPENNYKTTPPVLDSDGSFFLVSKLTVDKSRWQQGNVFSCSVMHEALHNHYTQKSLSLSPDYKDDDDK
chain: EPKSSDKTHTCPPCPAPELLGGPSVFLFPPKPKDTLMISRTPEVTCVVVDVSHEDPEVKFNWYVDGVEVHNAKTKPREEQYNSTYRVVSVLTVLHQDWLNGKEYKCKVSNKALPAPIEKTISKAKGQPREPQVCTLPPSRDELTKNQVSLWCLVKGFYPSDIAVEWESNGQPENNYKTTPPVLDSDGSFFLYSKLTVDKSRWQQGNVFSCSVMHEALHNRYTQKSLSLSP
light: DIVMTQSPLSLPVTPGEPASISCRSSQSLVHSNRNTYLHWYQQKPGQAPRLLIYKVSNRFSGVPDRFSGSGSGTDFTLKISRVEAEDVGVYYCGQGTQVPYTFGQGTKLEIKRTVAAPSVFIFPPSDEQLKSGTASVVCLLNNFYPREAKVQWKVDNALQSGNSQESVTEQDSKDSTYSLSSTLTLSKADYEKHKVYACEVTHQGLSSPVTKSFNRGEC

T1 sequence (P07766 23-126): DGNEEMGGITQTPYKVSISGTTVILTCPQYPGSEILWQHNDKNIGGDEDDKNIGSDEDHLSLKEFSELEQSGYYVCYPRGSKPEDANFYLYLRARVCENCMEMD

The assay has as its target T1, CD3 epsilon homodimer protein (UniProt P07766 23-126).
T1 construct: immobilized on Sensor chip CM4 by amine coupling; also called CD3 (CD3 epsilon)
Briefly: SPR (Biacore T200), CD3 epsilon homodimer on CM4 chip, one-arm antibody as analyte, 25 C.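 Also: homodimer attached to the sensor surface via amine coupling, HBS-EP+ used as running buffer during binding runs.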
On to B1, for which the “ratio of amounts bound (altered form / CE115HA000)” value amounted to 0.83.

With B2, the “ratio of amounts bound (altered form / CE115HA000)” value is 0.87.

On to B3, for which the “ratio of amounts bound (altered form / CE115HA000)” value stood at 1.07.

Take B4: the “ratio of amounts bound (altered form / CE115HA000)” value came out at 0.73.

Turning to B5, the “ratio of amounts bound (altered form / CE115HA000)” value worked out at 0.94.

Turning to B6, the “ratio of amounts bound (altered form / CE115HA000)” value was found to be 1.04.
